Measured values from paper PMC8565330.

B1: PITX1 rM4 (ssRNA)
RNA: GAGCGCGGAAGCGCGCGCGCGCGCGCGCGG
B2: NRAS rM4 (ssRNA)
RNA: GUGUAAAAGGGGCGGGUCUGGGUGCG

Target: GST-G3BP1 (human, UniProt Q13283 1-466)
Experiment: fluorescence anisotropy

GST-G3BP1, sequence (Q13283 whole entry): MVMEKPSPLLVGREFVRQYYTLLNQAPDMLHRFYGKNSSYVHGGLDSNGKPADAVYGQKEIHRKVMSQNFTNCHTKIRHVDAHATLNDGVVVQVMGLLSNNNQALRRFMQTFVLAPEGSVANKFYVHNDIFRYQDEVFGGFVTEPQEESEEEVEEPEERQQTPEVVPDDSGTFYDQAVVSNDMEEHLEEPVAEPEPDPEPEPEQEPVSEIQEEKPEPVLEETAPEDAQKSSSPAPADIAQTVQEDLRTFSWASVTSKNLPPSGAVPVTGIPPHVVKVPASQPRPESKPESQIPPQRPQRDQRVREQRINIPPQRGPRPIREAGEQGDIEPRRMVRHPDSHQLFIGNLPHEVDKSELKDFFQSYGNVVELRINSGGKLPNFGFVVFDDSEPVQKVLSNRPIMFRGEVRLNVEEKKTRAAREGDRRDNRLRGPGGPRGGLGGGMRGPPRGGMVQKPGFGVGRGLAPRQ

Row | Binder | Kd
1 | B1 | 761 ± 73 nM
2 | B2 | 266 ± 36 nM
